Three molecules from patent US20250019457A1 (IBIO, published 2025) can be followed below.

Changes are numbered by the printed parent chain. Like-named read-outs stand apart in the source and are kept apart here.

What is called EC50 is the midpoint of the concentration-response curve. Low readings indicate higher potency in that assay, high ones lower potency in that assay. The Kd is the concentration at which binding is half-saturated. One may read the koff as a measure of how fast the partners let go of each other. A word on the kon: it is a measure of how fast the partners come together. What is called EC50 (read off the curve) is the concentration needed to bring the measured effect to its halfway point.

The target of assay [1] is T1, human Trop2 on cells (FaDu cells, endogenous; ExpiCHO cells overexpressing human Trop2) (human, UniProt P09758 27-323).
T1 construct: Cell-surface form
T1 sequence: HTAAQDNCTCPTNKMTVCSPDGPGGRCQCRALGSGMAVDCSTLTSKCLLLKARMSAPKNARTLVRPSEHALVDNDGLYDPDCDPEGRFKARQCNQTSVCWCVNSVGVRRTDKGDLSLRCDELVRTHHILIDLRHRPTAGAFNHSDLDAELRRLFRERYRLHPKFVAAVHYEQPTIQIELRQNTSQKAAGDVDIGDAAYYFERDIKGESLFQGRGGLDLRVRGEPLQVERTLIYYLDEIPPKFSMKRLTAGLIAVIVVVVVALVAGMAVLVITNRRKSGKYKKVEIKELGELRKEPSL
Description: flow cytometry on FaDu cells (endogenous human Trop2); average of n=1-3 experiments.

The target of assay [2] is T2, human EpCAM (purified recombinant antigen, Acro Biosystems Cat #EPM-H5223) (human, UniProt P16422 24-265).
T2 construct: Bought recombinant protein
T2 sequence: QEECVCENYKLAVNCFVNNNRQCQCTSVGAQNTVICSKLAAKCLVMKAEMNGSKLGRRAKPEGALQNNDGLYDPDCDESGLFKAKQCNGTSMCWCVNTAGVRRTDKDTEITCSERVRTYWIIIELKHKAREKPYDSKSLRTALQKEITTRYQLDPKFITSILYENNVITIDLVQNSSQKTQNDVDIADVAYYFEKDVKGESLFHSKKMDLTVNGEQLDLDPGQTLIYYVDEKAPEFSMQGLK
Description: SPR, Carterra LSA; antibody captured on anti-human IgG, antigen injected. A general note: Surface plasmon resonance follows binding to a sensor surface in real time, without labels.

Assay [3] addresses T3, mouse TROP2 (purified recombinant antigen, Acro Biosystems Cat #TR2-M52H6) (mouse, UniProt Q8BGV3 25-270).
T3 construct: Bought recombinant protein; also called msTROP2
T3 sequence: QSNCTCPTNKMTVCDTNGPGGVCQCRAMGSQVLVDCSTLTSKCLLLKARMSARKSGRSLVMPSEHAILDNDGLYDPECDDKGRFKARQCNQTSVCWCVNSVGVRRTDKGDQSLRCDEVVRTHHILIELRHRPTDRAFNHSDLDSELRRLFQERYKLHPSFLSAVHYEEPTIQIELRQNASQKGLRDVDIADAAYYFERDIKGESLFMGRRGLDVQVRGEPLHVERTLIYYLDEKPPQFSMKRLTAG
The assay is described as above.

Assay [4] concerns the target T4, cynomolgus/rhesus TROP2 (purified recombinant antigen, Acro Biosystems Cat #TR2-R52H3) (cynomolgus/rhesus, UniProt P09758 27-274 (human entry)).
T4 construct: Bought recombinant protein; also called cyTROP2; cyno/rhesus TROP2
T4 chain: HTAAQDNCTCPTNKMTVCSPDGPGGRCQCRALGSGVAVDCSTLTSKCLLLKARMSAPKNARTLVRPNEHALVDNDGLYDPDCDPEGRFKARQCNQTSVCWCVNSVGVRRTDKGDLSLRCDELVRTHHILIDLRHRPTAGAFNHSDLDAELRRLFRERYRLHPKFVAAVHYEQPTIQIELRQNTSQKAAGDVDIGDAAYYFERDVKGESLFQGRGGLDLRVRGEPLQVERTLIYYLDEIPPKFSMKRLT
Put plainly: SPR, Carterra LSA; antibody captured on anti-human IgG, antigen injected; 1:1 fit.

Assay [5] concerns the target T5, human TROP2 (purified recombinant antigen, Acro Biosystems Cat #TR2-H5223) (human, UniProt P09758 27-274).
T5 construct: Bought recombinant protein; also called huTROP2
T5 sequence: T4 chain with V36M, N67S, V204I
Described as above.

Assay [6] has as its target T5, human TROP2 (purified recombinant …). Described as above. The source holds these as a separate data set.
For assay [7] the target is unchanged. Description: MSD assay: biotinylated TROP2 on streptavidin plate, antibody titrated, anti-human SULFO-TAG detection.
In assay [8] the target is T6, mouse Trop2 on ExpiCHO cells overexpressing mouse Trop2 (mouse, UniProt Q8BGV3 25-317).
T6 construct: Cell-surface form
T6 sequence: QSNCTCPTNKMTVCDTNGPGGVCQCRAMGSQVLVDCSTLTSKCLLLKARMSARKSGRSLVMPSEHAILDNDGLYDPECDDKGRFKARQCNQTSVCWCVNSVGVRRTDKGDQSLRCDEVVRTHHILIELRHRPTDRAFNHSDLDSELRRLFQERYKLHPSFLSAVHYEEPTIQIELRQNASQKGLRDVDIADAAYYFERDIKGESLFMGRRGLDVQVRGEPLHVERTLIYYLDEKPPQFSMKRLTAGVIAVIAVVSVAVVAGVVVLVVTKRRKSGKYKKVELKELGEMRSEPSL
Description: flow cytometry on ExpiCHO cells overexpressing mouse Trop2, percent of cells bound; histogram overlay at 66.67 nM. Background: A flow cytometer gives signals particle by particle.

Assay [9] addresses T7, recombinant CD3ϵδ-HRP heterodimer (Acro Biosystems CDD-HR2W3) (Homo sapiens (Human), UniProt P07766 23-126; P04234 22-105, Conjugated to horseradish peroxidase (HRP). The site and chemistry are not stated and the letters do not carry it.).
T7 construct: Bought HRP conjugate; also called CD3ϵδ heterodimer; not shown: The HRP conjugate and any vendor tags or fusion partners on the two chains (Acro Biosystems CDD-HR2W3); copies: 1 + 1
Description: direct ELISA: antibody coated at 5 ug/mL, CD3ϵδ-HRP titrated (the axis is the CD3ϵδ-HRP concentration), absorbance at 450 nm.

T7 sequence (P07766 23-126 limits assumed, stated change not applied, chain 1 of 2): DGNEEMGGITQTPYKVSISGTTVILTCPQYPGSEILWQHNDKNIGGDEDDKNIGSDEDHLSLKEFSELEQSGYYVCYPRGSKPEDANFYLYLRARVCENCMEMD
T7 sequence (P04234 22-105 limits assumed, stated change not applied, chain 2 of 2): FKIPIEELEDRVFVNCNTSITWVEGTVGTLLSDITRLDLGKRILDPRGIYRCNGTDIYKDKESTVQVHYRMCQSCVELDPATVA

B1: SD-025096 (antibody, V domains shown)
VH: QVQLQQSGAELVRPGASVKLSCKASGYTFTSYWINWVKQRPGQGLEWIGNIFPSGSYTNYNQKFKDRATLTVDKSSSTAFMQLSSPTSEDSAIYFCTRGSGFDYWGQGTTLTVSS
VL: DIVLTQSPATLSVTPGDSVSLSCRASQSISNNLHWYQQKSHESPRLLIKYASQSISGIPSRFSGSGSGTDFTLSINSVETEDFGMYFCQQSNSWPFTFGSGTKLEIK
notes: Mouse/human chimera; also called Human IgG1 SD-025096
For B1, the EC50 in [1] stood at 1.99 nM. Besides, the binding result in assay [2] and in assay [3] was “no binding (tested: 1 µM top concentration)” in each case. Moreover, the results for the Kd in assay [4], in [5] and in assay [6] were 6.55 nM, 5.47 nM and 5.47 nM, respectively. For the same molecule, the koff in [6] amounted to 0.00165 s⁻¹. The kon in [6] amounted to 301000 M⁻¹ s⁻¹. In addition, the “EC50 (read off the curve)” value in assay [7] is roughly 0.2 nM.

B2: SD-071877 (antibody, V domains shown)
VH: AVTLDESGGGLQTPGGALSLVCKASGFDFSGYGMGWVRQAPGKGLEWVAGITNDGRYIGHGSAVKGRATISRDNGQSTVRLQLNNLRAEDTGTYFCTKCAYRSGCDYEAGSIDAWGHGTEVIVSS
VL: ALALTQPSSVSANLGGTVKITCSGDNNWYGWYQQKSPGSAPVTVIYYDDKRPSDIPSRFSGSRSGSTGTLTITGVQAEDEAVYFCGNRDSSAGYVGIFGAGTTLTVL
notes: Chicken/human chimera
Regarding B2, the half-maximal effective concentration (EC50) in assay [1] came to 1.09 nM. Moreover, the binding result was “no binding (tested: 66.67 nM)” in assay [8] and “no binding (tested: 1 µM top concentration)” in assay [2]. The Kd in assay [4] worked out at 4.96 nM; in [5] it was 0.31 nM; in assay [6], 0.31 nM. The koff in [6] turned out to be 0.000143 s⁻¹. Moreover, the kon in assay [6] amounted to 457000 M⁻¹ s⁻¹.

B3: Gen 1 (antibody, V domains shown)
VH: EVQLVESGGGLVQPGGSLRLSCAASGFTFNTYAMNWVRQAPGKGLEWVGRIRSKYNNYATYYADSVKGRFTISRDDSKNTLYLQMNSLRAEDTAVYYCVRHGNFGNSYVSWFAYWGQGTLVTVSS
VL: DIQMTQSPSSLSASVGDRVTITCRSSTGAVTTSNYANWVQQKPGKAPKGLIGGTNKRAPGVPARFSGSGSGTDFTLTISSLQPEDFATYYCALWYSNLWVFGQGTKVEIK
notes: also called CD3 Gen 1; Gen1 CD3
With B3, the concentration giving a half-maximal response (EC50 (read off the curve)) in assay [9] is roughly 0.04 µg/mL.
